Assay in all cases: cell-based or functional assay
The target of one assay is human GLP-1 receptor (human, UniProt P43220 24-463).
The target in the next assay is human glucagon receptor (human, UniProt P47871 26-477).
Another assay concerns the target T1, human GIP receptor (human, UniProt P48546 22-466).
T1 sequence (looked up): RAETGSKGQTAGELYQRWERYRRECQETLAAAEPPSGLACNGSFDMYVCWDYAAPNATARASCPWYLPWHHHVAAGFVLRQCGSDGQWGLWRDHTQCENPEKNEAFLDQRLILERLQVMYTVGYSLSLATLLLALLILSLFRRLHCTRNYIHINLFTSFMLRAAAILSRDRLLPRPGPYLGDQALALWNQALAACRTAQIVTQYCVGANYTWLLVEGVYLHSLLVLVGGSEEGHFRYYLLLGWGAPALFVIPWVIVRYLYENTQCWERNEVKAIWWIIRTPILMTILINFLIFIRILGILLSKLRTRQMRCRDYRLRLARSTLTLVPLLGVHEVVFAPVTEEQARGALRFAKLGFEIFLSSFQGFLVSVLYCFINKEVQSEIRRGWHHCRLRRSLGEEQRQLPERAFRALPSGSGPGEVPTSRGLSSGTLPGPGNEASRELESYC

Starred links: 1 amine or outer side, 2 acyl side, 3 side chain; linkers in the order of their positions; H or OH if unused. Non-standard residues stand in square brackets, D forms with d. Groups on a side chain read outwards from the residue. No end group written: not given here. *: point of attachment. γGlu = O=C(O)[C@H](CCC(=O)[*:2])N[*:1]; Stearoyl = CCCCCCCCCCCCCCCCCC(=O)*; Palmitoyl = CCCCCCCCCCCCCCCC(=O)*; Aib = CC(C)(N)C(=O)O

Results on seven molecules are retold here after patent publication US20150315260A1 (Sanofi, published 2015).

Sequence of human glucagon receptor (P47871 26-477): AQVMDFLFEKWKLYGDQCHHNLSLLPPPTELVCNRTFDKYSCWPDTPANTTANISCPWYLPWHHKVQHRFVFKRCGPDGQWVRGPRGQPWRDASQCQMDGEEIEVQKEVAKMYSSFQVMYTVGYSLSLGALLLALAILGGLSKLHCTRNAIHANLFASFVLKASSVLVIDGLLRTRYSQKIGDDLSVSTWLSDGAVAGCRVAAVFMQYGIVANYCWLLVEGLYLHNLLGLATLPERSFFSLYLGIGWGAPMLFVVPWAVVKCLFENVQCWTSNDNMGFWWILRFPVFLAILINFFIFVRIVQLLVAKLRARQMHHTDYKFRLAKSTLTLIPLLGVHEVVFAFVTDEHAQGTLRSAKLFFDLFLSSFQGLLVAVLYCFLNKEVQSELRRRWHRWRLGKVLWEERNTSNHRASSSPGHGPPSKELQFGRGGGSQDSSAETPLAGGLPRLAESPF

B1: exendin-4 derivative SEQ ID NO: 11 (peptide)
peptide: H[Aib]QGTFTSDLSKQK([γGlu-Palmitoyl])DEQRAKLFIEWL[Aib]A[dA]GPSSGAPPPS-NH2
modifications: N-terminus assumed
SMILES: CCCCCCCCCCCCCCCC(=O)N[C@@H](CCC(=O)NCCCC[C@H](NC(=O)[C@H](CCC(N)=O)NC(=O)[C@H](CCCCN)NC(=O)[C@H](CO)NC(=O)[C@H](CC(C)C)NC(=O)[C@H](CC(=O)O)NC(=O)[C@H](CO)NC(=O)[C@@H](NC(=O)[C@H](Cc1ccccc1)NC(=O)[C@@H](NC(=O)CNC(=O)[C@H](CCC(N)=O)NC(=O)C(C)(C)NC(=O)[C@@H](N)Cc1c[nH]cn1)[C@@H](C)O)[C@@H](C)O)C(=O)N[C@@H](CC(=O)O)C(=O)N[C@@H](CCC(=O)O)C(=O)N[C@@H](CCC(N)=O)C(=O)N[C@@H](CCCNC(=N)N)C(=O)N[C@@H](C)C(=O)N[C@@H](CCCCN)C(=O)N[C@@H](CC(C)C)C(=O)N[C@@H](Cc1ccccc1)C(=O)N[C@H](C(=O)N[C@@H](CCC(=O)O)C(=O)N[C@@H](Cc1c[nH]c2ccccc12)C(=O)N[C@@H](CC(C)C)C(=O)NC(C)(C)C(=O)N[C@@H](C)C(=O)N[C@H](C)C(=O)NCC(=O)N1CCC[C@H]1C(=O)N[C@@H](CO)C(=O)N[C@@H](CO)C(=O)NCC(=O)N[C@@H](C)C(=O)N1CCC[C@H]1C(=O)N1CCC[C@H]1C(=O)N1CCC[C@H]1C(=O)N[C@@H](CO)C(N)=O)[C@@H](C)CC)C(=O)O
For the molecule B1, the “EC50 hGLP-1R (cAMP formation)” value with human GLP-1 receptor was determined as 0.0103 nM. For the same molecule, the “EC50 hGlucagon-R (cAMP formation)” value with human glucagon receptor amounted to 0.261 nM. For the same molecule, the “EC50 hGIP-R (cAMP formation)” value in the assay with human GIP receptor turned out to be 13.4 nM.

B2: exendin-4 derivative SEQ ID NO: 13 (peptide)
peptide: H[Aib]QGTFTSDLSKQK([γGlu-γGlu-Palmitoyl])DEQRAKLFIEWL[Aib]SGGPSSGAPPPS-NH2
For the molecule B2, in the assay with human glucagon receptor, the “EC50 hGlucagon-R (cAMP formation)” value amounted to 0.0228 nM. For the same molecule, the “EC50 hGIP-R (cAMP formation)” value in the assay with human GIP receptor was 2.39 nM.

B3: exendin-4 derivative SEQ ID NO: 12 (peptide)
peptide: H[Aib]QGTFTSDLSKQK([γGlu-γGlu-Palmitoyl])DEQRAKLFIEWL[Aib]S[dA]GPSSGAPPPS-NH2
modifications: N-terminus assumed
SMILES: CCCCCCCCCCCCCCCC(=O)N[C@@H](CCC(=O)N[C@@H](CCC(=O)NCCCC[C@H](NC(=O)[C@H](CCC(N)=O)NC(=O)[C@H](CCCCN)NC(=O)[C@H](CO)NC(=O)[C@H](CC(C)C)NC(=O)[C@H](CC(=O)O)NC(=O)[C@H](CO)NC(=O)[C@@H](NC(=O)[C@H](Cc1ccccc1)NC(=O)[C@@H](NC(=O)CNC(=O)[C@H](CCC(N)=O)NC(=O)C(C)(C)NC(=O)[C@@H](N)Cc1c[nH]cn1)[C@@H](C)O)[C@@H](C)O)C(=O)N[C@@H](CC(=O)O)C(=O)N[C@@H](CCC(=O)O)C(=O)N[C@@H](CCC(N)=O)C(=O)N[C@@H](CCCNC(=N)N)C(=O)N[C@@H](C)C(=O)N[C@@H](CCCCN)C(=O)N[C@@H](CC(C)C)C(=O)N[C@@H](Cc1ccccc1)C(=O)N[C@H](C(=O)N[C@@H](CCC(=O)O)C(=O)N[C@@H](Cc1c[nH]c2ccccc12)C(=O)N[C@@H](CC(C)C)C(=O)NC(C)(C)C(=O)N[C@@H](CO)C(=O)N[C@H](C)C(=O)NCC(=O)N1CCC[C@H]1C(=O)N[C@@H](CO)C(=O)N[C@@H](CO)C(=O)NCC(=O)N[C@@H](C)C(=O)N1CCC[C@H]1C(=O)N1CCC[C@H]1C(=O)N1CCC[C@H]1C(=O)N[C@@H](CO)C(N)=O)[C@@H](C)CC)C(=O)O)C(=O)O
B3: the “EC50 hGLP-1R (cAMP formation)” value in the assay with human GLP-1 receptor was 0.0037 nM. In addition, the “EC50 hGlucagon-R (cAMP formation)” value in the assay with human glucagon receptor worked out at 0.13 nM. The “EC50 hGIP-R (cAMP formation)” value with human GIP receptor was 8.29 nM.

B4: exendin-4 derivative SEQ ID NO: 9 (peptide)
peptide: H[Aib]QGTFTSDLSKQK([γGlu-Stearoyl])DEQRAKLFIEWL[Aib]AGGPSSGAPPPS-NH2
modifications: N-terminus assumed
SMILES: CCCCCCCCCCCCCCCCCC(=O)N[C@@H](CCC(=O)NCCCC[C@H](NC(=O)[C@H](CCC(N)=O)NC(=O)[C@H](CCCCN)NC(=O)[C@H](CO)NC(=O)[C@H](CC(C)C)NC(=O)[C@H](CC(=O)O)NC(=O)[C@H](CO)NC(=O)[C@@H](NC(=O)[C@H](Cc1ccccc1)NC(=O)[C@@H](NC(=O)CNC(=O)[C@H](CCC(N)=O)NC(=O)C(C)(C)NC(=O)[C@@H](N)Cc1c[nH]cn1)[C@@H](C)O)[C@@H](C)O)C(=O)N[C@@H](CC(=O)O)C(=O)N[C@@H](CCC(=O)O)C(=O)N[C@@H](CCC(N)=O)C(=O)N[C@@H](CCCNC(=N)N)C(=O)N[C@@H](C)C(=O)N[C@@H](CCCCN)C(=O)N[C@@H](CC(C)C)C(=O)N[C@@H](Cc1ccccc1)C(=O)N[C@H](C(=O)N[C@@H](CCC(=O)O)C(=O)N[C@@H](Cc1c[nH]c2ccccc12)C(=O)N[C@@H](CC(C)C)C(=O)NC(C)(C)C(=O)N[C@@H](C)C(=O)NCC(=O)NCC(=O)N1CCC[C@H]1C(=O)N[C@@H](CO)C(=O)N[C@@H](CO)C(=O)NCC(=O)N[C@@H](C)C(=O)N1CCC[C@H]1C(=O)N1CCC[C@H]1C(=O)N1CCC[C@H]1C(=O)N[C@@H](CO)C(N)=O)[C@@H](C)CC)C(=O)O
Consider B4, for which, in the assay with human GLP-1 receptor, the “EC50 hGLP-1R (cAMP formation)” value came out at 0.0064 nM. The “EC50 hGlucagon-R (cAMP formation)” value in the assay with human glucagon receptor turned out to be 0.0154 nM. Besides, in the assay with human GIP receptor, the “EC50 hGIP-R (cAMP formation)” value was found to be 1.16 nM.

B5: exendin-4 derivative SEQ ID NO: 10 (peptide)
peptide: H[Aib]QGTFTSDLSKQK([γGlu-Palmitoyl])DEQRAKLFIEWL[Aib]AGGPSSGAPPPS-NH2
modifications: N-terminus assumed
SMILES: CCCCCCCCCCCCCCCC(=O)N[C@@H](CCC(=O)NCCCC[C@H](NC(=O)[C@H](CCC(N)=O)NC(=O)[C@H](CCCCN)NC(=O)[C@H](CO)NC(=O)[C@H](CC(C)C)NC(=O)[C@H](CC(=O)O)NC(=O)[C@H](CO)NC(=O)[C@@H](NC(=O)[C@H](Cc1ccccc1)NC(=O)[C@@H](NC(=O)CNC(=O)[C@H](CCC(N)=O)NC(=O)C(C)(C)NC(=O)[C@@H](N)Cc1c[nH]cn1)[C@@H](C)O)[C@@H](C)O)C(=O)N[C@@H](CC(=O)O)C(=O)N[C@@H](CCC(=O)O)C(=O)N[C@@H](CCC(N)=O)C(=O)N[C@@H](CCCNC(=N)N)C(=O)N[C@@H](C)C(=O)N[C@@H](CCCCN)C(=O)N[C@@H](CC(C)C)C(=O)N[C@@H](Cc1ccccc1)C(=O)N[C@H](C(=O)N[C@@H](CCC(=O)O)C(=O)N[C@@H](Cc1c[nH]c2ccccc12)C(=O)N[C@@H](CC(C)C)C(=O)NC(C)(C)C(=O)N[C@@H](C)C(=O)NCC(=O)NCC(=O)N1CCC[C@H]1C(=O)N[C@@H](CO)C(=O)N[C@@H](CO)C(=O)NCC(=O)N[C@@H](C)C(=O)N1CCC[C@H]1C(=O)N1CCC[C@H]1C(=O)N1CCC[C@H]1C(=O)N[C@@H](CO)C(N)=O)[C@@H](C)CC)C(=O)O
Consider B5, for which the “EC50 hGLP-1R (cAMP formation)” value in the assay with human GLP-1 receptor turned out to be 0.0035 nM. Further, in the assay with human glucagon receptor, the “EC50 hGlucagon-R (cAMP formation)” value was 0.0524 nM. Further, in the assay with human GIP receptor, the “EC50 hGIP-R (cAMP formation)” value came to 0.89 nM.

B6: exendin-4 derivative SEQ ID NO: 8 (peptide)
peptide: H[Aib]QGTFTSDLSKQK([γGlu-γGlu-Palmitoyl])DEQRAKLFIEWL[Aib]AGGPSSGAPPPS-NH2
modifications: N-terminus assumed
SMILES: CCCCCCCCCCCCCCCC(=O)N[C@@H](CCC(=O)N[C@@H](CCC(=O)NCCCC[C@H](NC(=O)[C@H](CCC(N)=O)NC(=O)[C@H](CCCCN)NC(=O)[C@H](CO)NC(=O)[C@H](CC(C)C)NC(=O)[C@H](CC(=O)O)NC(=O)[C@H](CO)NC(=O)[C@@H](NC(=O)[C@H](Cc1ccccc1)NC(=O)[C@@H](NC(=O)CNC(=O)[C@H](CCC(N)=O)NC(=O)C(C)(C)NC(=O)[C@@H](N)Cc1c[nH]cn1)[C@@H](C)O)[C@@H](C)O)C(=O)N[C@@H](CC(=O)O)C(=O)N[C@@H](CCC(=O)O)C(=O)N[C@@H](CCC(N)=O)C(=O)N[C@@H](CCCNC(=N)N)C(=O)N[C@@H](C)C(=O)N[C@@H](CCCCN)C(=O)N[C@@H](CC(C)C)C(=O)N[C@@H](Cc1ccccc1)C(=O)N[C@H](C(=O)N[C@@H](CCC(=O)O)C(=O)N[C@@H](Cc1c[nH]c2ccccc12)C(=O)N[C@@H](CC(C)C)C(=O)NC(C)(C)C(=O)N[C@@H](C)C(=O)NCC(=O)NCC(=O)N1CCC[C@H]1C(=O)N[C@@H](CO)C(=O)N[C@@H](CO)C(=O)NCC(=O)N[C@@H](C)C(=O)N1CCC[C@H]1C(=O)N1CCC[C@H]1C(=O)N1CCC[C@H]1C(=O)N[C@@H](CO)C(N)=O)[C@@H](C)CC)C(=O)O)C(=O)O
In the case of B6, the “EC50 hGLP-1R (cAMP formation)” value with human GLP-1 receptor was 0.0023 nM. The “EC50 hGlucagon-R (cAMP formation)” value with human glucagon receptor was 0.0281 nM. Also, the “EC50 hGIP-R (cAMP formation)” value with human GIP receptor is 2.14 nM.

B7: exendin-4 derivative SEQ ID NO: 15 (peptide)
peptide: H[Aib]QGTFTSDLSKQK([γGlu-γGlu-Palmitoyl])DEQRAKLFIEWL[Aib]KGGPSSGAPPPS-NH2
In the case of B7, the “EC50 hGlucagon-R (cAMP formation)” value with human glucagon receptor is 0.0426 nM. In the assay with human GIP receptor, the “EC50 hGIP-R (cAMP formation)” value is 1.85 nM.
